Here are results for 1 sequence from article PMC8264776.

The data set concerns the target T1, OsbHLH148 (bHLH148-6xHis) (Oryza sativa) (UniProt Q75KV9).
T1 sequence: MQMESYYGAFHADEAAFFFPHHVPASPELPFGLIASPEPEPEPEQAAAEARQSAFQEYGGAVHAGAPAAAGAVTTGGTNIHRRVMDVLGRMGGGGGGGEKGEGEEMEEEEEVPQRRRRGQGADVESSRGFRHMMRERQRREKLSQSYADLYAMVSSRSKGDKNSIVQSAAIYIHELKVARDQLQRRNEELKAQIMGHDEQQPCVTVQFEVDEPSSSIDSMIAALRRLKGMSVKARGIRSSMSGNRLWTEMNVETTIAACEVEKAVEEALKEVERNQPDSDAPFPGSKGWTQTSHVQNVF
Kind of data set: EMSA. Conditions: 10 mM Tris pH 7.5, 50 mM KCl, 1 mM DTT, 2.5% glycerol, 5 mM MgCl (so in the source), 0.05% NP-40, 50 ng/ul poly(dI-dC); 20 min room temperature; 5% native PAGE. (Mobility shift assays separate free from complexed probe on a gel.)

On to “AAATAAATAAGACAGACGATTAAAATTAGATACGTAAATCATGGCGGCGTTTAAAATGGGATGGATTGAGTAGTACACTGTACCAGCGTACCCTTTTGTACTCATAGGAAGACTTCGACATTTTCAAACACTTGAGGACAACTTTCCAATTCAATAACAATACTACTCCACACGTGGCTGAAATGGCTGAAAAAGTTCCA (double strand) [OsRAP2.6 promoter fragment]”, for which the binding entry was “binds”.
